Reference: US20070185028A1, “Compositions and methods for treatment of protein misfolding and protein aggregation diseases” (priority 2004, published 2007)
“Also recorded” adds a separate entry of the source.

Columns and labels:
transthyretin (TTR) = molecular target: T1, transthyretin (TTR) (Homo sapiens, UniProt P02766); test: Transthyretin fibrillation ThT assay; format: biochemical; details: for effect on TTR fibril formation, overall: five αB crystallin peptides and control
T1 construct: purchased Sigma-Aldrich
Protocol: The effect of the five αB crystallin peptides ST, DR, HG, LT, and ER on TTR fibrillation was measured using the ThT fluorescence assay (FIG. 26). The formation and inhibition of TTR fibrils was qualitatively verified by fluorescence and bright-field microscopy. The concentration of the peptides was varied relative to TTR to establish a concentration curve. In addition, the effect of a control neuropeptide (AT1) with no TTR fibril inhibition activity was measured and compared to the effect of the αB crystallin peptides on TTR fibril formation. The ThT fluorescence of 16 μM TTR alone incubated at 37° C. for 4 hrs, increased from ˜15,000 to ˜45,000 RFU. Addition of 3.2 μM αB crystallin peptides, ST, DR, LT, and HG decreased the ThT fluorescence of TTR by 15-70%. In contrast, 3.2 μM ER had no effect on TTR fibril formation. Increasing the concentration of the ER peptide to 16 μM decreased the ThT fluorescence of TTR by 60%. The negative control peptide AT1 had no effect on TTR fibrillation even at a concentration as high as 160 μM. All five αB crystallin peptides inhibited TTR fibrillation at sub-stoichometric and stoichometric concentrations (3.2 μM and 16 μM).
The Thioflavin T (ThT) fluorescence of TTR in the presence of varying concentrations of αB crystallin peptides and controls was measured. […] When the concentration of the peptides was increased to 16 μM (1:1::peptide:TTR), the αB crystallin peptides ST, DR, HG, LT and ER decreased the ThT fluorescence by 8-72%. When the concentration of the peptides was increased further to 80 μM ([…]), all of the five αB crystallin peptides ST, DR, HG, LT, and ER decreased the ThT fluorescence by 40-70%. […] The formation and inhibition of TTR fibrils was verified microscopically.
Transthyretin fibrillation ThT assays were performed as described previously. Hurshman et al., Biochemistry 43:7365-81, 2004; O'Nuallain and Wetzel, Proc Natl Acad Sci USA 99:1485-90, 2002. Peptides were dissolved to 2 mM in 0.25% DMSO and diluted accordingly, while TTR was dissolved in 200 mM KCl, 2 mM EDTA, 5 mM PBS, 200 mM sodium acetate, pH 4.4. For the 5::peptide:TTR assay, 10 μL of 160 μM peptide was mixed with 10 μL of 32 μM TTR, and 1 μL of 1 mM ThT. For the 1:1::peptide:TTR assay, 10 μL of 32 μM peptide was mixed with 10 μL of 32 μM TTR and 1 μL of 1 mM ThT. For the 1:5::peptide:TTR assay, 10 μL of 6.4 μM peptide was mixed with 10 μL of 32 μM TTR and 1 μL of 1 mM ThT. ThT fluorescence was measured using a Perkin Elmer Victor^3 V plate reader. Assays were performed in 384-well fluorescence plates in duplicates or triplicates. Samples were incubated at 37° C. ThT fluorescence was measured continuously for 150 minutes. The effect of the peptides and APS was calculated as percentage fibril formation relative to TTR alone (100%) at the end of 150 minutes.

[1] = molecular target: T2, equine alcohol dehydrogenase (ADH) (Equus caballus, UniProt P00327); test: αB crystallin protein pin array with alcohol dehydrogenase; format: binding; details: ADH as ligand in the pin array
T2 construct: purchased Sigma-Aldrich, MO 05646
T2 sequence (P00327 whole entry): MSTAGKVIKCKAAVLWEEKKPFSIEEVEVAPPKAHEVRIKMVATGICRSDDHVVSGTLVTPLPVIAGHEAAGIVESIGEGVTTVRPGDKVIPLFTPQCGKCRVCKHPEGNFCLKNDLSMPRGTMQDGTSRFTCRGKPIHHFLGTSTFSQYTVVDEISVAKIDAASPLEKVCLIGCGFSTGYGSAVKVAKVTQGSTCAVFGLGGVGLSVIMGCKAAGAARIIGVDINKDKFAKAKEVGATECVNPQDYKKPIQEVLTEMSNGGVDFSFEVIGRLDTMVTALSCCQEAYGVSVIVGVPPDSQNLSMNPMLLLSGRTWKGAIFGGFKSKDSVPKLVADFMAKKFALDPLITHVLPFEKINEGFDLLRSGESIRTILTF
Text: Synthesis of Pins, binding and detection of peptides binding to ligand proteins. The αB crystallin protein pin array was used to measure the interaction between peptides and chaperone target proteins including bovine βH crystallin, human γD crystallin, equine alcohol dehydrogenase (ADH) and porcine citrate synthase (CS) as described (FIG. 12). Ghosh and Clark, Protein Sci 14: 684-95, 2005.
Refer to the methods section for detailed protocols. The absorbance corresponding to the blue coloration in each well was measured at λ=450 nm and plotted against the amino acid sequence of the corresponding peptide in that well (FIGS. 13 and 14). Wells containing peptides that have strong interactions with target proteins are dark blue and wells containing peptides that have weak or no interaction with target proteins are light blue or clear.
The purity of the target proteins used in the pin array assays, bovine βH crystallin, human γD crystallin, equine alcohol dehydrogenase (ADH) and porcine citrate synthase (CS) were determined to be >90% by SDS-PAGE. In addition, primary antibodies for each target protein were specific to that target protein and consequently contaminating proteins that may bind to the peptides will not be detected. Eighty-four sequential and overlapping peptide fragments corresponding to residues 1-175 of human αB crystallin were synthesized employing a simultaneous peptide synthesis strategy developed by Geysen, called Multipin Peptide Synthesis (Mimotopes, San Diego, Calif.). Geysen, Southeast Asian J Trop Med Public Health 21: 523-33, 1990; Chin et al., J Org Chem 62: 538-539, 1997. Peptides were immobilized on derivatized polyethylene pins arranged in a microtiter ELISA plate format. Each peptide was eight amino acids in length and consecutive peptides were offset by two amino acids. All peptides were bound covalently to the surface of the plastic pins. The first peptide was 1MDIAIHHP8 and the last peptide was 168PAVTAAPK175 for human αB crystallin.
Ghosh and Clark, Protein Sci 14: 684-95, 2005. […] The intensity of the blue color in the wells was measured at 450 nm using an ELISA plate-reader (BioTek, Winooski, Vt.). The intensity of the blue color (plotted on the X-axis) was a measure of the interaction between αB crystallin peptides (plotted on the Y-axis) and target proteins. To measure the effect of temperature on the interactions between interactive peptides and the target proteins, the target proteins were heated in a water-bath at 45° C. for fifteen minutes prior to use. Pin arrays are unable to differentiate between monomers, dimers or oligomers of target proteins that exist in solution. Instead, pin arrays are very sensitive detectors of interactions between individual peptides and the entire population (monomers, dimers or oligomers) of specific target proteins that may exist in solution under specific conditions. Each target protein was assayed two to five times. A single pin array was used for all experiments and no change in interactions was observed after more than thirty repetitions. The last three peptides of the protein pin array, 163REEKPAVT170, 165EKPAVTAA172, 167PAVTAAPK174, correspond to the epitope (163REEKPAVTAAPKK175) recognized by the primary antibody for human αB crystallin. A positive reaction is observed for these three peptides in the absence of human αB crystallin as the ligand due to direct binding of the anti-human αB crystallin antibody to these three peptides. The loss of efficiency for the pin array was measured using this assay. The loss of efficiency for the pin array was determined to be <5% by after more than 30 assays.
The pattern of absorbance at k=450 nm when αB crystallin peptides were assayed with unheated and pre-heated ADH was similar to the absorbance pattern obtained with unheated and pre-heated βH/γD crystallin (FIG. 17). […]

Sequence	effect on TTR fibril formation, overall (transthyretin (TTR))	absorbance at 450 nm, interaction with ADH [1]	other results
ERTIPITRE	modestly inhibited	–	decrease in ThT fluorescence of TTR (transthyretin (TTR); 3.2 μM, 16 μM TTR, 37° C.): no effect
FSVNLDVK [Peptide 38]	–	Maximum absorbances	–
HGKHEERQDE	–	–	effect on TTR fibril formation, overall (transthyretin (TTR); listed as HG): most effective inhibitor; also recorded: strong inhibition
LTITSSLSSDGV	partially inhibited	–	–
WIRRPFFP [Peptide 5]	–	Maximum absorbances	–

More lines, main results first:

effect on TTR fibril formation, overall (transthyretin (TTR))	absorbance at 450 nm, interaction with ADH [1]	Sequence	other results
strong inhibition	–	DRFSVNLDVKHFS	–
–	Maximum absorbances	LTITSSLS [Peptide 66]	–
partially inhibited	–	STSLSPFYLRPPSFLRAP	–
